Measured values published in publication doi:10.1101/2020.10.14.340026 (bioRxiv, 2020).
Residue numbers refer to the chain shown, from its start.

B1: EBOV-237 mAb (antibody, V domains shown)
VH: QVQLQESGPGLVKPSGTLSLTCAVSGGSISNGIWWSWVRQPPGKGLEWIGEIYHSGSTNYSPSLKSRVTISLDKSKNQFSLKLNSVTAADTAVYYCARAPSQFDFSDWLVPQGAMFRGHYIDYWGQGTLVTVSS
VL: not shown
notes: IgG1; source: ExpiCHO, transiently transfected, purified (HiTrap MabSelect Sure)
B2: EBOV-442 mAb (antibody, V domains shown)
VH: EVQLVESGGGLVKPGGSLRLSCTGSGGTGFTFKYAGMSWVRQAPGKGPEWIGRIKSRIDGGTTDYAAPVKDRFIVSRDDSRNTLYLQMNSLKTEDTAVYYCATGSGKGPSASFGESYYYYDFINVWGKGTTVTVSS
VL: ESVLTQSPGTLSLSPGERATLSCRASQSISRKYLAWYQQKPGQAPRLLIYGSSSRATGIPDRFSGSGSGTDFTLTISRLEPEDFAVYYCHQYESSPWTFGQGTKVEIK
notes: as for B1
B3: BDBV-289 mAb (antibody, V domains shown)
VH: QVQLVQSGAEVKKPGSSVKVSCKASGATFGSDTVTWVRQAPGQGLEWMGGIIPFFGEANYAQRFQGRVTITADKSTNTAYMELSSLRSEDTAVYFCARQINEMATFGEIHYYTYMDVWGQGTLVTVSS
VL: GSELTQDPAVSVALGQTVRITCQGDSLRNYYASWYQQKPRQAPVLVFYGKNNRPSGIPDRFSGSSSGNTASLTISGAQAEDEADYYCNSRDSSSNHLVFGGGTKLTVL
notes: source: HEK-293F, transiently transfected, purified (mAb Select, SEC)
B4: EBOV-437 mAb (antibody, V domains shown)
VH: QVQLVQSGAEVKKPGSSVKVSCKASGGTFSRDIFSWVRQAPGQGLEWMGGIIPIFGTANYAQKFQGRVTITADKSTSTVFMELSGLRSEDTAVYFCARGPPLRGERSWFGESEKYDYFYMDVWGKGTTVTVSS
VL: QIVLTQSPGTLSLSPGERATLSCRASQSVSNSYLAWYQQKPGQAPRLLIYGASSRATGIPDRFSGSGSGTDFTLSISRLEPEDFAVYYCQQYGTSPCTFGQGTKLEIK
notes: as for B1
B5: BDBV-329 mAb (antibody, V domains shown)
VH: QVQLVQSGAEVKKPGSSVKVSCKASGGTFDTYAISWVRQAPGQGLEWMGGIIPVLGIVDYAQKFQGRVTITAAKFTNIAYMELSSLRSEDAAVYYCARGLRSLSPRGQEGPTPAPGWRRAQYHYYYMDVWGTGTLVTVSS
VL: B4 VL with Q1E, L4M, N31S, S32N, T70P, S75T, T94S, C97G, Q101G, L105V
notes: as for B1
B6: EBOV-293 mAb (antibody, V domains shown)
VH: QVQLVQSGAEVKKPGSSVKVSCKASGGTFIDYTYNWVRQAPGQGLVWMGRVVPGLGLSSYAQQFEDRVTITAAKSTSTVYMELRGLTSEDTAMYYCARDTASFGWLPFAFWGQGTLVTVSS
VL: QTVMTQSPGTLSLSPGERATLSCGVSQSISSTYFAWYQQKVGQAPRLLIYGASNRASGIPDRFSGSASGTDFTLTISRVEPEDFAVYYCQQYGSSPTFGQGTRLEIK
B7: EBOV-296 mAb (antibody, V domains shown)
VH: QVQLVESGPGLVKPSQTLSLICTVSGGSISSGDFYWSWIRQPPGKGLEWIGFFYYSGITYYNPSLKSRVSISRDTSTNQFSLKLRSVTAADTAVYYCARVRGGRITLGQGDMYYYSGMDVWGQGTLVTVSS
VL: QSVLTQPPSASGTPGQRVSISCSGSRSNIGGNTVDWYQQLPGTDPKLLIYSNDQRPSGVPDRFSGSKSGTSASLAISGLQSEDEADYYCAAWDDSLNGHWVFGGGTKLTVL
B8: EBOV-548 mAb (antibody, V domains shown)
VH: QVQVEESGGGVVQPGGSLRLSCAASGFMFSNYGMHWVRQAPGKGLEWMAFIRYDDSKKFYADSVKGRFTISRDNSKNTLYLQMNSLRAEDTALYYCAKELLQVYTSAWGEGHSYYYALDVWGLGTAVTVSS
VL: DIQMTQSPSSVSASVGDRVTITCRASQDISNWLAWYQQKPGKAPELLIYTASILQSGVSSRFSGSGSGTDFTLTISSLQPEDSATYYCQQGKSFPYTFGQGTKLEIK
B9: BDBV-43 mAb (antibody, V domains shown)
VH: QVQLVQSGAEVKKPGSSVKVSCRASGDSFSRKYGISWVRQAPGQGFEWMGTIMPIVGLTTSAQKFQGRVTITADKSTSTAHMELNSLTSEDTAIYYCARDEIIGARPHWFDSWGQGTLVTVSS
VL: EIVMTQSPAIMSVSPGKRATLSCRASQSVSSNLAWYQRKPGQAPRLLIYGSSTRATGIPARFSGSGSGTEFTLTISSLQSEDFAVYYCLQYYNWPRTFGQGTKVEIK
notes: as for B3
B10: EBOV-515 mAb, Alexa Fluor 647-labeled (antibody, V domains shown)
VH: QVQLQESGPGLVKPSQTLSLTCTVSGGSINSAGYYWTWIRQHPGKGLEWIGYIDYTGRTYYNPSLESRVIISIDTSKNHFSLRLTSVSAADTAVYYCARESSWVSELGRDNWGQGTLVTVSS
VL: EIVMTQSPATLPVSPGEGATLSCRASQSVFTNLAWYQQKPGQAPRLLIYDASTRATGIPARFSGSGSGTEFTLTISSLQSEDFAVYYCQQYNNWPRTYGQGTRVEVK

Molecular target: T1, EBOV sGP (Mayinga) (Zaire ebolavirus (strain Mayinga-76) …, UniProt P60170)
T1 construct: source: HEK-293F, transiently transfected, purified (Strep-Tactin, SEC S200 increase)
Experiment: ELISA
Settings: both partners purified

Binder | binding result
B1 | binds
B2 | binds
B3 | binds
B4 | binds
B5 | binds
B6 | binds
B7 | binds
B8 | binds
B9 | binds

Molecular target: Cleaved EBOV GP (GPCL) displayed on Jurkat cells (Zaire ebolavirus, Makona (A0A0E3TM45), UniProt A0A0E3TM45, strain)
Experiment: flow cytometry on cells
Settings: one partner purified

Binder | binding result
B2 | binds
B10 | binds
